Our source for the inhibition of VEGF-induced HUVEC proliferation in vitro, IC50 values is patent US20060014669A1.

The experiment addresses VEGF. The experiment is described as follows: cell-based or functional assay.

Substance “Murine Flt1(1-3) soluble ectodomain with C-terminal 6xHis tag (adenovirus-expressed) (from UniProt P35969 23-328) (receptor)” registered an inhibition of VEGF-induced HUVEC proliferation in vitro, IC50 of 0.005 µg/mL.
The value for “Murine Flk1-Fc (murine Flk1 ectodomain fused to murine IgG2a Fc fragment, adenovirus-expressed) (from UniProt P35918 20-762) (Fc fusion)” was 0.1 µg/mL.
